Test results from the Human Domainome abundance scans (Beltran et al. 2025).
± gives the uncertainty stated by the source.

B1: FERM and PDZ domain-containing protein 4, residues 75 to 154; numbered along this chain, Q14CM0 (parent)
chain: APRKVEMRRDPVLGFGFVAGSEKPVVVRSVTPGGPSEGKLIPGDQIVMINDEPVSAAPRERVIDLVRSCKESILLTVIQP

Variants of: B1
Assay: abundance fitness (aPCA) (normalised: wild type 0, dead -1); higher = more abundant; growth selection in yeast, the domain comes from the species named
Conditions: Homo sapiens

Variant	abundance fitness
E71L	-0.232 ± 0.026
E71M	-0.198 ± 0.034
E71N	-0.106 ± 0.036
E71P	-0.219 ± 0.033
E71Q	-0.038 ± 0.031
E71R	-0.059 ± 0.025
E71S	-0.055 ± 0.026
E71T	-0.052 ± 0.028
E71V	-0.164 ± 0.029
E71W	-0.215 ± 0.035
E71Y	-0.231 ± 0.035
S72A	-0.072 ± 0.024
S72C	-0.111 ± 0.032
S72D	-0.014 ± 0.029
S72F	-0.167 ± 0.028
S72H	-0.015 ± 0.029
S72I	-0.177 ± 0.029
S72K	0.009 ± 0.027
S72M	-0.11 ± 0.028
S72N	-0.028 ± 0.028
S72P	-0.284 ± 0.028
S72Q	-0.004 ± 0.027
S72R	-0.019 ± 0.021
S72T	-0.011 ± 0.026

Variant	abundance fitness
S72V	-0.104 ± 0.023
S72W	-0.234 ± 0.029
S72Y	-0.129 ± 0.029
I73C	-0.045 ± 0.039
I73E	-0.463 ± 0.037
I73F	-0.242 ± 0.057
I73G	-0.565 ± 0.032
I73H	-0.793 ± 0.17
I73L	-0.023 ± 0.029
I73N	-0.369 ± 0.052
I73P	-0.57 ± 0.061
I73R	-0.669 ± 0.036
I73S	-0.462 ± 0.037
I73T	-0.202 ± 0.038
I73V	-0.025 ± 0.027
I73W	-0.954 ± 0.057
I73Y	-0.755 ± 0.092
L74A	-0.006 ± 0.032
L74C	0.038 ± 0.05
L74D	0.012 ± 0.05
L74E	0.005 ± 0.034
L74F	0.016 ± 0.062
L74G	0.009 ± 0.026
L74H	0.005 ± 0.13

Variant	abundance fitness
L74I	0.145 ± 0.096
L74K	0.026 ± 0.049
L74M	0.011 ± 0.043
L74N	-0.035 ± 0.079
L74P	-0.366 ± 0.068
L74Q	0.03 ± 0.045
L74R	0.037 ± 0.031
L74S	0.024 ± 0.038
L74T	-0.014 ± 0.043
L74V	0.012 ± 0.031
L74W	-0.024 ± 0.037
L74Y	0.131 ± 0.092
L75A	-0.332 ± 0.04
L75C	-0.257 ± 0.052
L75D	-0.343 ± 0.062
L75E	-0.514 ± 0.054
L75F	-0.101 ± 0.047
L75H	-0.553 ± 0.2
L75I	-0.118 ± 0.066
L75K	-0.387 ± 0.07
L75M	-0.022 ± 0.041
L75N	-0.773 ± 0.19
L75P	-0.185 ± 0.075
L75Q	-0.542 ± 0.096

Variant	abundance fitness
L75R	-0.631 ± 0.045
L75S	-0.558 ± 0.051
L75T	-0.404 ± 0.063
L75V	-0.097 ± 0.032
L75W	-0.629 ± 0.048
L75Y	-0.749 ± 0.13
T76A	-0.132 ± 0.033
T76C	-0.088 ± 0.047
T76D	-0.073 ± 0.055
T76E	-0.025 ± 0.04
T76H	-0.05 ± 0.062
T76I	-0.156 ± 0.052
T76K	-0.036 ± 0.04
T76L	-0.163 ± 0.034
T76M	-0.154 ± 0.04
T76N	0.002 ± 0.074
T76P	-0.639 ± 0.081
T76Q	-0.095 ± 0.039
T76R	-0.058 ± 0.029
T76S	-0.047 ± 0.032
T76V	-0.133 ± 0.031
T76W	-0.18 ± 0.033
T76Y	-0.005 ± 0.059
V77A	-0.259 ± 0.023

Variant	abundance fitness
V77C	-0.07 ± 0.029
V77D	-0.658 ± 0.044
V77G	-0.653 ± 0.023
V77H	-0.681 ± 0.056
V77I	-0.098 ± 0.032
V77K	-0.523 ± 0.033
V77L	-0.105 ± 0.021
V77M	-0.475 ± 0.031
V77R	-0.728 ± 0.025
V77S	-0.655 ± 0.03
V77T	-0.231 ± 0.028
V77W	-0.981 ± 0.041
V77Y	-0.815 ± 0.078
I78A	0.028 ± 0.021
I78C	-0.029 ± 0.027
I78E	0.044 ± 0.023
I78F	-0.042 ± 0.031
I78G	-0.079 ± 0.019
I78H	-0.015 ± 0.036
I78K	0.036 ± 0.027
I78L	-0.024 ± 0.02
I78M	0.022 ± 0.025
I78N	-0.049 ± 0.033
I78P	-0.569 ± 0.032

Variant	abundance fitness
I78Q	0.025 ± 0.024
I78R	0.005 ± 0.019
I78S	0.01 ± 0.022
I78T	0.037 ± 0.024
I78W	-0.063 ± 0.022
I78Y	-0.053 ± 0.033
Q79A	0.035 ± 0.022
Q79C	0.012 ± 0.028
Q79D	-0.002 ± 0.028
Q79E	-0.017 ± 0.024
Q79F	-0.262 ± 0.034
Q79G	0.03 ± 0.019
Q79H	-0.027 ± 0.032
Q79I	-0.425 ± 0.039
Q79K	-0.029 ± 0.027
Q79L	-0.165 ± 0.022
Q79N	-0.045 ± 0.033
Q79P	-0.019 ± 0.03
Q79R	0.074 ± 0.018
Q79S	0.022 ± 0.022
Q79T	0.028 ± 0.024
Q79V	-0.236 ± 0.021
Q79W	-0.233 ± 0.023
Q79Y	-0.09 ± 0.033

Variant	abundance fitness
P80A	-0.086 ± 0.033
P80C	-0.157 ± 0.11
P80D	-0.28 ± 0.11
P80E	-0.164 ± 0.053
P80F	-0.387 ± 0.13
P80G	-0.074 ± 0.036
P80H	-0.165 ± 0.066
P80I	-0.413 ± 0.11
P80K	-0.138 ± 0.054
P80L	-0.387 ± 0.042
P80M	-0.181 ± 0.048
P80N	-0.058 ± 0.085
P80Q	0 ± 0.05
P80R	-0.146 ± 0.04
P80S	-0.066 ± 0.028
P80T	-0.066 ± 0.033
P80V	-0.23 ± 0.039
P80W	-0.403 ± 0.064
P80Y	-0.356 ± 0.07
